Laboratory results taken from patent US12534541B2, “Anti-PTK7 antibody and uses thereof” (MABCARE THERAPEUTICS, priority 2023, dated 2026).
Where two headings read alike, the source gives them in different places.

Assays:
[1] = tested on: cervical squamous cell carcinoma PDX LD1-0010-362343; experiment: In vivo anti-tumor activity against human cervical squamous cell carcinoma PDX LD1-0010-362343; conditions: NU/NU mice, i.v. 5 mg/kg, once a week, 2 doses, vs negative control
Protocol: (§1) 6-week-old NU/NU mice, female, weighing 18-21 g, were purchased from Beijing Vital River Laboratory Animal Technology Co., Ltd. The mice were subcutaneously inoculated with cervical squamous cell carcinoma tumor mass (specimen no. 362343, obtained from Xi'an LIDE Biotech Co. Ltd.). When the average tumor volume reached 150 mm^3, the antibody-drug conjugate Ab13-T1000-exatecan as prepared in Example 5 was administered intravenously at a dose of 10 mg/kg, the antibody-drug conjugate h6M24-vc0101 as prepared in Example 8 was administered intravenously at a dose of 5 mg/kg, and a negative control Vehicle group was set and administered intravenously with PBS at an equal dose, once a week for a total of 2 doses. After dosing, the tumor volume was measured twice a week using a vernier caliper and calculated according to the following formula: TV=(length*width^2)/2.

[2] = tested on: refractory ovarian cancer expressing PTK7, triple-negative breast cancer, and NSCLC; conditions: cited from earlier work
[3] = tested on: colorectal cancer PDX LD1-2038-361980; experiment: In vivo anti-tumor activity against human colorectal cancer PDX LD1-2038-361980; conditions: NU/NU mice, i.v. 5 mg/kg, once a week, 2 doses, vs negative control
Protocol: as §1, with “colorectal cancer” for “cervical squamous cell carcinoma”, “361980,” for “362343,”

B1: h6M24-vc0101: control drug: h6M24 (cofetuzumab) linked to Aur0101 via mc-VC-PAB linker, DAR about 4 (conjugate, chains of the INN, looked up)
VH: QVQLVQSGPEVKKPGASVKVSCKASGYTFTDYAVHWVRQAPGKRLEWIGVISTYNDYTYNNQDFKGRVTMTRDTSASTAYMELSRLRSEDTAVYYCARGNSYFYALDYWGQGTSVTVSS
VL: EIVLTQSPATLSLSPGERATLSCRASESVDSYGKSFMHWYQQKPGQAPRLLIYRASNLESGIPARFSGSGSGTDFTLTISSLEPEDFAVYYCQQSNEDPWTFGGGTKLEIK
modifications: Aur0101 via mc-VC-PAB linker, DAR 4
For B1, the “tumor growth inhibition (tumor volume over time)” value [1] is given as “significantly inhibit tumor growth”, the dose-limiting toxicity ([2]; highest dose assessed every 3 weeks) is given as “Two patients experienced a dose-limiting toxicity (grade 3 headache and fatigue)” and the “objective response rate (ORR)” value ([2]; patients with NSCLC (6/31 patients)) is given as 19%. The “objective response rate (ORR)” value ([2]; patients with refractory ovarian cancer expressing PTK7 (17/63 patients)) was 27%, the “objective response rate (ORR)” value ([2]; patients with triple-negative breast cancer (6/29 patients)) was 21% and the “tumor growth inhibition (tumor volume over time)” value [3] was “does not produce any tumor growth inhibitory effect”.
